A protein production outcome set (Wang et al. 2014)

Test: label from the status in PepcDB records

MKQVPDVNKIKFDPETKRIVRKDVPLMMNSFDKKAVEEAIRISERHGWETCVATMGPPQAVEVINEALRMGIERGYLITDPSLANSDTLITSRVLAAFALRYGPDLVLMGKYSLDGETSQVPAEVSALMGWPYVPSVSKIMISDHLELEQELENGIYTCSAPLPCVLSLSEKINRARAIKPDTPQMYDRIVQIDTKWLGLDLDGGRDSPTAVIGTEQVNSNRSPVFIDPGADMYRQIMEIIRVSR
protein production: failed

MANNARIEHTSSEGHEGDATCVAYFDGQLFSGGADGKIRIWSPELQLLATVNAHEAYIYCMAINQHGKVYSSSCDGQVHFMLPPYGDESVQELFRCDDAIQAMYCDGSVLYTGDDKGVVTTWTNDRMLFKYSLVEEVKSLAGEQNLIYTVRDLDVVVSQVAEGKSGKYSNKAVIPGKSPLHLLGPMVDGKRSYLAFPDRSGMGLQLVNNLSQQQYSKIWHLPDCHELIINALCGDETYLYSGGYDKKVKGWTDLEAGKPKALGEVEVGSCVNSICCGANDTVYIASSDGFIRSAKFV
protein production: failed

MAPFSSSSAEIKIARTAPFSSSAENKGNRQINGASSSASSCDAENAKSGGSRQLGKAAYMEGKHVDALQIFMWMHRKEMSFSTSEVALFVDIIGNTIGIAAAHSYLKKVDPNCDQMHNRTENWPAFVSLVKLETKLLKENGIVHATRPPK
protein production: failed

SFRVVLDPGHGGIDGGARGVTGILEKDVTLAFARALRDELQKGSHTIVALTRDSDIFLRLSERVKKAQEFDADLFISIHADTIDVHSLRGATVYTISDEASDAIAKSLAESENKVDLLDGLPKEESLELTDILLDLTRRETHAFSINFANNVVSNLSKSHINLINNPHRYADFQVLKAPDVPSVLIEIGYLSNKEDEKLLNNPQWRKQMAASIAYSIRQFAEYRQKIMQPL
protein production: not failed

MKDSIDFGNMEIPRLFRKLLIPTVLGMVFSAVFVITDGIFVGKGIGSDALAAVNITAPLFMITTGIGLMFGVGASVVASIHLSQGKRKVASINITQALAFSALLILVLSALCCYFAEPIGRLLGSSERLLPLVVEYMNWYVPFLVFYLLLSAGMFYIRLDGSPNYAMMCNAVSAIINIILDYVFIFQLGWGMMGAAFATSLGTMVGGLMTLIYLLRFSRNVGIYRIKLSRKSMRLTCRNIGYMIRLGSSAFISEASIASMMFLGNYVFISHLGESGVAAFSIVCYFFPIIFMVYNAIAQSAQPIISYNFGQQNPGRVARTIRLALKTALGCGIFFFAATLVFNHQIVGLFIDKSYQAYDIAVNGIPYFAVGYLFFALNIVGIGYYQSIERARRATVITLFRGTLFMLAGFLLLPPVLGVRGIWLAVPLAELLTLLLIIGIYLKDSFAVRR
protein production: failed

MGEKKGLSFFEKYLSLWVALCIVLGILIGKFMPSLPRTLSKLTIANVNMAIAVLIWAMIYPMMVKVDFSAIKRVHKGQMLKGLIVTWVTNWLIKPFSMFLISSFFIGTIFSMKLGLIDPSLAKEYIAGAILLGAAPCTAMVFVWSYLADGDPLYTLVQVATNDIIILFAFAPIVGFLMGLNKVPVPYDTLLLSVVLFVVIPLSAGYLSRRYILKTKGHKWFEQEFLPKLSTISIVGLLLTLILLFSFQGEIILENPLHIALIAIPLTIQTYFIFAIAYGWAWIWKLPHKVAAPASFIGASNFFELAVAVAIALFGLDSGAALATVVGVLEEVPIMLSLVWIANKTRHFFTAKFETGSGSKAWALLRNSLPYYPYCPNHEDIRKDTYKQMNLYPVLFFLG
protein production: failed

MTKMYINTIIEYIDSNIAYSPIVFFSLLILAGLNVPISEDAIVLMGGILSSRKNEYTILIFLGIFWGAYLGDIISFYIGKLMGNKLFKNKKDNNLLDKINYYYGQYGVLTLFIGRFIPFGVRNAIFMSAGMGNMKSNLFIVSDFFATLLSIVVYFTLSFKLGQSFEIIFSKIKIIIFAIFIAVIATTIIIYVIKKNKKVDKNLK
protein production: failed

MYESANVSDDADRTAFRRAEKKYKLYYEQDSKFSRKKKLPKPIDLSELLDFNLISQNFNNDGVLPDGIRVSKVDSSPVFCIDNRPGFYFIPDALSLKEQCKWIKESLTSFPQPPNRTNHNAIYGPIDDLFDSAKENKVLVQDDLTNNKWKFYEEVDIEKATRSSCKSVSASVLLRKLRWSTLGLQFDWSKRNYDVSLPHNNIPDALCQLAKTHAAIAMPDGEEFRPEGAIVNYFGIGDTLGGHLDDMEADWSKPIVSMSLGCKAIFLLGGKSKDDPPHAMYLRSGDVVLMAGEARECFHGNLLHFQLDGIPRIFTGEENADIGALESELSHESGHFFAEYIKTSRININIRQVF
protein production: failed

MEMNVKTNSSPTAPKPSKQTGWRIWWSLLRPHTLTAAFVPVFIGTAYSMQVGGINQIHLPLFLMMLLACLLIQAATNMFNEYFDYKRGLDHEGSVGIGGAIVRDGIQPKTVLNLAFGFFGIAILLGVYICINSSWWLAAIGLVCMAVAYLYTGGPLPIAYTPFGELTAGLFMGVIIIGISFFIQTGTVTSEVILLSIPSSILIGAILLANNIRDLDGDKENGRKTLAILVGRERAVGVLASMFIVSYIWTIALIIVGIVSPWMLIVFLSAPKAFKATKGFIGKSIPMEMVPAMIATAKTNTIFGFLMGIGLLLGYFL
protein production: failed

HKSMSKMKSTLKQFISMGNMLTAENNFFRQMQGLLSETTEIAAMTGGIIFLADKQEGHFTPTAFRWNGENIPVAEMPSLSITEDSFTTFQPVLEGKTIAGTLNKENIFHQLQDFLQPYLPLRFVAVPMKTHDKQLLGFLLLFNPYQLNAEREHSKIQLVNALVGSLSVSVETQQLLQEQKNLLNA
protein production: failed

MRDWPAFLLALLVAFALWYSLQERAPVVERSLKVPLQVVGLGEGRRALGLPREVLLRLRGPAPLLEGRALPVSAYLDLSGAEGEVVREVRVAAPQGVEVLEVVPARVGVVVEVEAQRQIPVEVLAQGAWVLTDPAFVEAVGPESQVEAAVSAVGLDLGDEVVLFPLGPEGPLEGVELRPNRVRVVERREALFLKEVPLSLNPPPGRRLLDYAPKTVRLVGPREALEGLAGVTATLQEALGPGEVEVAVAPDLPPGVHTLGPVRVRVALELEHHHHHH
protein production: failed

MYADYPYYADHYGGDIPEREYPSAERRAEAYIRKLTYVRGNIFAVENTAVKDAVCAVADVYYSCKKKQEAGTVKSESNDGYSVSYAVEQADGQTMEELIRKKAYEAASTYLLPTGWLSRKVGCCHADECDDYNL
protein production: failed

QAEMTQRMQQLEALNDLNRAILAASDAEQIAQIGLRSLRRQVPFWGATAMLIDWESSCARVLAIERAPGASYDPGQRLSLVSYGMEDLERMKRGETCVVTDLGQIPRRALTLERLYQQGIQSYARIPLLAEGRLLGMLNLASDAVGAFDAAQLDVAQAYARHLAVSLQQSLL
protein production: failed

MNKLILISGLMLFSFFFGAGNLIFPPMLGYTAQENMWVSMTGFAITGILLPYITVIVVAYMNGGVESIGNKVHPIFGTVFAICIYLSIGALYGIPRAANVAYEIGTNHVLPVHNHFTLIIFSLIFFLVVYLIALYPNRIIDNLGKYLTPILIIIIAVLCILVIINPEGSIGQASGEYAQTPIVSGILEGYFTMDLVAALAFSVVIVQMFKMSGVNDHKTLVKNVIKSGLISAILLLIIYFALAYVGATTSHEGFKDGTGILTFNSLRVFGSIGNLLFGVIVILACLTTCIGLVNACAAFAMKKLPKISYKMFVLIFSLLGFLVSTLGLELILQIAVPLLTFIYPTSIVLVLISLVSIFIPFEMKYAFILPTLMTLFISLLQIFNDFNLFQPLISLYKVLPLSDIQLSWLLPFIILLFIGLIIDYFLKNKTVSTS
protein production: failed

MLNGLWLGFFLVAAVSAMAQWLVGGNAGIFAAMVESIFAMAKLSVEVMVLLFGTLTLWLGFLKIAEKAGIVEWLAKVLGPLFARLMPEVPPGHPALGLITMNFAANGLGLDNAATPIGLKAMRALQELNPGSTTASNAQILFLVLNASSLTLLPVTVFMYRAQQGAPDPTMVFLPILLATSVSTLVGLLSVAVMQRLRLWDPVVLAYFIPGALLLGGFMAFLGTLSAAALASLSSLLGNLTLFGVIMLFLVVGALKRVKVYEAFVEGATEGFDVAKSLLPYLVAMLVAVGVLRASGALELALDGIRHAVSWMGLDTRFVEGLPTALVKPFSGSAARAMLIETMQTQGVDSFPALVAATIQGSTETTFYVLAVYFGAVGIQRVRHAVGCALLAEFSGVVAAIFVCYWFFA
protein production: failed

MFSLKNYSPSPLLSAKAKEYLVFTLVTLTIVVAGTLLFLFDPASSKLFPPSPFRSLTGLYCPGCGTLRALHQLLHGNLVGAFGLNPLMMISLPFMIYSYVAYGLKTINGRTLLVWFVPPKVIWFILQAILAYWVARNIPFAPFSWLAP
protein production: failed

MPTYLFLSSGNVLADRRYDFARELLARGEAEAAADLLAQAVELAPDFTSAWFALGEIRQDRLGNREGAVDAFRRARAADPRDRHGAGLRLMRLGAADLDAMSPAYIGALFDQYAPRFDKSLVEDLGYRGPALLFEAVREVCETTGRAMAFRRAIDLGCGTGLVGRAFAPIISEIIGFDLAPQMIERARATGVYGRLAVTDLVQGLANEPPASAELILAADVLIYIQDVAPLLHEAARVLPPGGLLAVTAETHAGDGVVLTAGLRFAQAESYLRAELERAGLVVALLQYASARNEKHTPLPGLVVVAFRPNG
protein production: failed

KWLDYDFTSLRKEILDKAFQKSLTQINWIMGGYYLVMESLSFFEYEQSIQSKTVRHLILVFYLLFFMGVIKKLDTYLKEKLYERLEQEQALRYRDMERYSRHIEELYKEVRSFRHDYTNLLTSLRLGIEEEDMEQIKEVYGSVLKDSSQKLQNNKYDLGRLVNIRDKALKSLLAGKFLKARDKNIVFNVEVPEEIQVEGMSLLDFLTIVSILCDNAIEASVEASQPHVSIAFLKNGAQETFIIENSIKEEGIDISEIFSFGASSKGEERGVGLYTVMKIVESHPNTSLNTTCQNQVFRQVLTVIHTE
protein production: failed

MFALISKINPGAWWLIFAIATDVLSTFYSAKGNGLVNKTAQGIALVLYIISFACAAIALKYMQAGILYVLWSGVGVLATAFLAKIFLGQNIDVAGWIGIGFITVGLMIIAQYY
protein production: failed

MSKVRVAGFSVSVDGFGAGPEQSLNDPLGKRGPEMFQWFFHTRTFRAMMGKDDGSTGIDEDYASRAMANFGAFILGRNMFGPIRGEWPDDAWKGWWGPNPPYHAPTYVLTHYPREPLVMEGGTTFHFVTGGIHQALDQAKAAAGDKDVKIGGGVATVRQYLQAGLIDELHFAVSPVVLGKGEAMFAGIDLPALDFRVTEHAASEKATHIVLAKLEHHHHHH
protein production: failed

GKIEEVVLGATKADGGTREYTVTLGGERSLAFYTFDAPQPHLPAIAIDVFDRRPMLAKAVRMHYEDVLDNPAEWARKCVKKFGADLVTLHLISTDPLLDDTPASEAVKVLEDVLQAVKCPIIVGGSGNKEKDPEVLEKAAEVAEGERIMLASATLDMDWERIANAAKKYGHVVLSWTQMDINNQKTLNRYLLKRVEMPRDSIVMDPTTAALGYGLDYAFTNMERIRISGLKGDTDLNFPISSGTTNAWGAREAWMVDSPIEEDTPWGPRELRGPIWEIITGLTLSLAGVDLFMMMHPVAVAVLKEVFNTLGGKVSGGVADPGEWIFME
protein production: failed

MGHHHHHHSHMLPVELVRHDVKKTDETSQVELMLQVDPDLFWFNGHFTGQPLLPGVAQLDWVMHYATTVLAQGWTFLSIENIKFQQPILPGKTLRLVLIWHAGKQSLTFSYSILEGDTERTASSGKIKLTPIMEDNPCQ
protein production: not failed

MARVVVDAQAARAIGKGAMIVFKKGVVRVEGDIKPGDIVEVYTRGGKFLGKGFANPNSNIMVRIVTKDKDVEINKDLFKRRIKKANEYRKKVLKYTNVYRMVYGEADYLPGLIVDRFNDIASLQISSAGMERFKLDVAEAIMEVEPGIETVFEKNTGRSRRREGLPEIERVLLGKEKYRTIIQEGRAKFIVDMRGQKTGFFLDQRENRLALEKWVQPGDRVLDVFTYTGGFAIHAAIAGADEVIGIDKSPRAIETAKENAKLNGVEDRMKFIVGSAFEEMEKLQKKGEKFDIVVLDPPAFVQHEKDLKAGLRAYFNVNFAGLNLVKDGGILVTCSCSQHVDLQMFKDMIIAAGAKAGKFLKMLEPYRTQAPDHPILMASKDTEYLKCLFLYVEDMR
protein production: not failed
